Measurements as given in patent US20200239541A1 (XYPHOS BIOSCIENCES, published 2020).
Numbering of substitutions follows the chain as printed. Names and notes keep the numbering of the source.

Experiments:
[1] = molecular target: T1, Y152A NKG2D-Fc (Example 5) (human); test: phage ELISA
T1 construct: also called non-natural Y152A NKG2D; not shown: Fc
T1 chain: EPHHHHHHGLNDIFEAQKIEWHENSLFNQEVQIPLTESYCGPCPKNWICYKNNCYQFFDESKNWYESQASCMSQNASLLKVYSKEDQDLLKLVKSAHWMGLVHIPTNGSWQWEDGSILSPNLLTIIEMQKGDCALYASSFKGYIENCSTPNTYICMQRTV

MICB-Fc (R&D Systems) = molecular target: T2, MICB-Fc (R&D Systems) (human, UniProt Q29980 23-298); test: ELISA, ligand-Fc coated, biotinylated NKG2D titrated
T2 construct: not shown: Fc of the bought reagent
T2 sequence (looked up): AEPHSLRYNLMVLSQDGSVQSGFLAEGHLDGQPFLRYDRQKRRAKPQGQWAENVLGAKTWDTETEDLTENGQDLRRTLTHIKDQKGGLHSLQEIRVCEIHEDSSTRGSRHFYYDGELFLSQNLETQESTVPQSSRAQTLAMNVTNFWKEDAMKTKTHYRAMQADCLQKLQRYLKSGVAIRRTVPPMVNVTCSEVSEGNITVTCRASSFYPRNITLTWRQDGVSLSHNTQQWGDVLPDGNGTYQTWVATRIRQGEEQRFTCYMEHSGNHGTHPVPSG
Procedure: (§1) In addition to purifying the above 3 Fc-fusion proteins NKG2D ligand-Fc fusion proteins MICB-Fc, ULBP1-Fc, ULBP2-Fc, ULBP3-Fc, and ULBP4-Fc were purchased from R&D Systems, Inc. (Minneapolis, Minn.). Binding of the different α1-α2 domain-Fc fusions to both natural and non-natural NKG2D ectodomain proteins was analyzed using a plate-based ELISA method. All of the natural and non-natural α1-α2 domain-Fc fusions were coated overnight at 4° C. onto separate wells of Maxisorp 96 well plates using a coating concentration of 2 μg/ml in phosphate-buffered saline (PBS). The plates were washed 3-times in PBS/0.05% Tween20 at 20-22° C., and blocked with 0.5% bovine serum albumin for 2 hours. The biotinylated natural and non-natural NKG2D receptor proteins were titrated against the plate-bound NKG2D ligands for 2 hours at 20-22° C., washed 3 times with PBS/0.05% Tween20 at 20-22° C., and the bound NKG2D proteins subsequently detected using a streptavidin-HRP secondary detection step and developed with 1-Step Ultra TMB Elisa.

ULBP1-Fc (R&D Systems) = molecular target: T3, ULBP1-Fc (R&D Systems) (human, UniProt Q9BZM6 26-216); test: as above
T3 construct: not shown: Fc of the bought reagent
T3 sequence (looked up): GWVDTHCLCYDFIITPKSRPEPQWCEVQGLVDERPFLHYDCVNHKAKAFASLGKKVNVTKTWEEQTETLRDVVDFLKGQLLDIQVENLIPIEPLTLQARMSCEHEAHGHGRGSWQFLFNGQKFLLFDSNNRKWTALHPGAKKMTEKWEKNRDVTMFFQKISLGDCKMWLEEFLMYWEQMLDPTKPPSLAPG
Procedure: as §1

ULBP2-Fc (R&D Systems) = molecular target: T4, ULBP2-Fc (R&D Systems) (human, UniProt Q9BZM5 26-217); test: as above
T4 construct: not shown: Fc of the bought reagent
T4 sequence (looked up): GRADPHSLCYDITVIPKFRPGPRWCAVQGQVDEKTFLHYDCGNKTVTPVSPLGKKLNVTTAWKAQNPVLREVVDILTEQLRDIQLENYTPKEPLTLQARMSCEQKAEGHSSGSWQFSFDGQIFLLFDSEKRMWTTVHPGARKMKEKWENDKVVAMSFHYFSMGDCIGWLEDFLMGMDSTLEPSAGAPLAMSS
Procedure: as §1

ULBP3-Fc (R&D Systems) = molecular target: T5, ULBP3-Fc (R&D Systems) (human, UniProt Q9BZM4 30-217); test: as above
T5 construct: not shown: Fc of the bought reagent
T5 sequence (looked up): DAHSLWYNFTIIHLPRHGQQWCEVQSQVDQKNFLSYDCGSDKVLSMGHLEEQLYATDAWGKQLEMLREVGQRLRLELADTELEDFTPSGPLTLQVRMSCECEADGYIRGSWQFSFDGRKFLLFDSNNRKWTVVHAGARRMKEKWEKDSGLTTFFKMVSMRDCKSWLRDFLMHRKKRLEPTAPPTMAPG
Procedure: as §1

ULBP4-Fc (R&D Systems) = molecular target: T6, ULBP4-Fc (R&D Systems) (human, UniProt Q8TD07 31-225); test: as above
T6 construct: not shown: Fc of the bought reagent
T6 sequence (looked up): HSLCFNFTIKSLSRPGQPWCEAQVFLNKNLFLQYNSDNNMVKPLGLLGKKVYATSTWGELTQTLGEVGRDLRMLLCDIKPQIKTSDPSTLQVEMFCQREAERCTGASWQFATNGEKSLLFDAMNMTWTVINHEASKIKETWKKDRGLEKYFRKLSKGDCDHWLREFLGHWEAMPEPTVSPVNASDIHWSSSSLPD
Procedure: as §1

human NKG2D-Fc [2] = molecular target: T7, human NKG2D-Fc (human, UniProt P26718 78-216); test: competition ELISA vs coated WT sMICA, 2 nM human NKG2D-Fc
T7 construct: also called natural NKG2D-Fc; not shown: Fc
T7 sequence (looked up): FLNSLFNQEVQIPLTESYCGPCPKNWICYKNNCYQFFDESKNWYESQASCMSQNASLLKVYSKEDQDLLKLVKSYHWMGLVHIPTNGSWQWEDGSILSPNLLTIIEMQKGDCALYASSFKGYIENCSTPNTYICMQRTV
Text: (§2) To the NKG2DLs in the above example, we directly attached heterologous molecules such as a polypeptide to each of these 4 modified α1-α2 NKG2DLs using a linker peptide. Four His-tagged proteins (SEQ ID NOs.: 25-28) consisting of modified NKG2DLs with attached heterologous molecules were expressed in insect cells and purified to characterize their NKG2D binding affinities and kinetic binding parameters. Using a competitive binding ELISA, we determined the relative NKG2D binding affinities of the 4 modified α1-α2 variants.

[3] = molecular target: T8, biotinylated human NKG2D (Example 1) (human, UniProt P26718 78-216); test: BLI (Octet), Kd = kOFF/kON
T8 construct: also called recombinant biotinylated NKG2D
T8 sequence (looked up): T7 sequence (looked up)

[4] = molecular target: T8, biotinylated human NKG2D (Example 1); test: BLI (Octet), biotinylated human NKG2D coated, 100 nM analyte
human NKG2D-Fc [5] = molecular target: T7, human NKG2D-Fc; test: competition ELISA vs coated WT sMICA
Text: as §2

B1: ULBP3.S1 (phage clone) (ligand)
chain: AAEPHSLWYNFTIIHLPRHGQQWCEVQSQVDQKNFLSYDCGSDKVLSMGHLEEQLYATDAWGKQLEMLREVGQRLRLELADTELEDFTPSGPLTLQVRMSCESEADGYIRGSWQFSFDGRKFLLFDSNNRKWTVVHAGARRMKEKWEKDSGLTTDLIRRSMGDCKSWLRDFLMHRKKRLEPTAP
How did the “fold selective binding to Y152A NKG2D over natural NKG2D” value (“fold selective binding to Y152A NKG2D” for short) [1] turn out when B1 was run?
The value was over 10 fold.

B2: ULBP3.S2 (phage clone) (ligand)
chain: B1 chain with D155Y, L156F, I157Y, R158L
Which “fold selective binding to Y152A NKG2D” value [1] does the source give for B2 here?
Its value is over 10 fold.

B3: His-avitag natural NKG2D ectodomain, biotinylated (receptor)
chain: T1 chain with A96Y
notes: also called natural form of the ectodomain of NKG2D
Does B3 bind (MICB-Fc (R&D Systems))?
Result: binds

Does B3 bind (ULBP1-Fc (R&D Systems))?
Result: binds

Does B3 bind (ULBP2-Fc (R&D Systems))?
Result: binds

Does B3 bind (ULBP3-Fc (R&D Systems))?
Result: binds

Does B3 bind (ULBP4-Fc (R&D Systems))?
Result: binds

B4: double Y152A plus Y199A mutant NKG2D ectodomain (His-avitag, biotinylated) (receptor)
chain: T1 chain with Y143A
notes: not shown: N-terminal His-avitag
Does B4 bind (MICB-Fc (R&D Systems))?
Result: no binding

Does B4 bind (ULBP1-Fc (R&D Systems))?
Result: no binding

Does B4 bind (ULBP2-Fc (R&D Systems))?
Result: no binding

Does B4 bind (ULBP3-Fc (R&D Systems))?
Result: no binding

Does B4 bind (ULBP4-Fc (R&D Systems))?
Result: no binding

B5: Y152A mutant NKG2D ectodomain (His-avitag, biotinylated) (receptor)
chain: T1 chain
notes: also called Y152A non-natural NKG2D receptor; not shown: N-terminal His-avitag
Which results are given for B5?
binding result (MICB-Fc (R&D Systems)): no binding; binding result (ULBP1-Fc (R&D Systems)): no binding; binding result (ULBP2-Fc (R&D Systems)): no binding; binding result (ULBP3-Fc (R&D Systems)): no binding; binding result (ULBP4-Fc (R&D Systems)): no binding

B6: Y199A mutant NKG2D ectodomain (His-avitag, biotinylated) (receptor)
chain: T1 chain with A96Y, Y143A
notes: as for B4
Does B6 bind (MICB-Fc (R&D Systems))?
Result: no binding

Does B6 bind (ULBP1-Fc (R&D Systems))?
Result: no binding

Does B6 bind (ULBP2-Fc (R&D Systems))?
Result: no binding

Does B6 bind (ULBP3-Fc (R&D Systems))?
Result: no binding

Does B6 bind (ULBP4-Fc (R&D Systems))?
Result: no binding

B7: MICA25.17 (phage clone) (ligand)
chain: EPHSLRYNLTVLSWDGSVQSGFLTEVHLDGQPFLRCDRQKCRAKPQGQWAEDVLGNKTWDRETRDLTGWGTTLLMTLAHIKDQKEGLHSLQEIRVCEIHEDNSTRSSQHFYYDGELFLSQNLETLEWTMPQSSRAQTLAMNVRNFLKEDAMETDIGYRLMRADCLSELRRYLKSGVVLRRTV
B7 was tested. Which “fold selective binding to Y152A NKG2D” value [1] did it give?
Its value is over 10 fold.

B8: MICA25.18 (phage clone) (ligand)
chain: B7 chain with T72F, L74R, I155R, G156S, Y157G, R158L
B8 was tested. Which “fold selective binding to Y152A NKG2D” value [1] did it give?
Its value is over 10 fold.

B9: WT α1-α2 domain (soluble wild-type MICA, titrated) (ligand, UniProt Q29983 24-204, looked up)
chain: EPHSLRYNLTVLSWDGSVQSGFLTEVHLDGQPFLRCDRQKCRAKPQGQWAEDVLGNKTWDRETRDLTGNGKDLRMTLAHIKDQKEGLHSLQEIRVCEIHEDNSTRSSQHFYYDGELFLSQNLETKEWTMPQSSRAQTLAMNVRNFLKEDAMKTKTHYHAMHADCLQELRRYLKSGVVLRRT
notes: domain: α1-α2; also called WT MICA; WT NKG2DL
Which IC50 (human NKG2D-Fc [2]) does the source give for B9 here?
The IC50 was 19.4 nM.

B10: ULBP2.S1 (phage clone) (ligand)
chain: AAEPHSLSYDITVIPKFRPGPRWCAVQGQVDEKTFLHYDCGNKTVTPVSPLGKKLNVTTAWKAQNPVLREVVDILTEQLWDIQLENYTPKEPLTLQARMSCEQKAEGHSSGSWQFSFDGQIFLLFDSEKRMWTTVHPGARKMKEKWENDKVVATTLYTWSMGDCIGWLEDFLMGMDSTLEPSAGAP
Which “fold selective binding to Y152A NKG2D” value [1] does the source give for B10 here?
The value was over 10 fold.

B11: ULBP2.S3 (phage clone) (ligand)
chain: B10 chain with T155K, T158L
How did the “fold selective binding to Y152A NKG2D” value [1] turn out when B11 was run?
The value was over 10 fold.

B12: ULBP2.S2 (phage clone) (ligand)
chain: B10 chain with T155L, L156M, Y157R, T158I
For B12, which “fold selective binding to Y152A NKG2D” value [1] is on record?
The value was over 10 fold.

B13: WED-MICA α1-α2 domain (N69W, K152E, K154D) (ligand)
chain: EPHSLRYNLTVLSWDGSVQSGFLTEVHLDGQPFLRCDRQKCRAKPQGQWAEDVLGNKTWDRETRDLTGWGKDLRMTLAHIKDQKEGLHSLQEIRVCEIHEDNSTRSSQHFYYDGELFLSQNLETKEWTMPQSSRAQTLAMNVRNFLKEDAMETDTHYHAMHADCLQELRRYLKSGVVLRRTVPPMVQVTRSEASGGSGDRVTITCRASQDVSTAVAWYQQKPGKAPKLLIYSASFLYSGVPSRFSGSGSGTDFTLTISSLQPEDFATYYCQQSYTTPPTFGQGTKVEIKGGSSRSSSSGGGGSGGGGEVQLVESGGGLVQPGGSLRLSCAASGFTFTSTGISWVRQAPGKGLEWVGRIYPTNGSTNYADSVKGRFTISADTSKNTAYLQMNSLRAEDTAVYYCARTYGIYDLYVDYTEYVMDYWGQGTLVTVSSGGSSRSSSSGGGGSGGGGDIQMTQSPSSLSASGGSGQITVTCRASGFYPWNITLSWRQDGVSLSHDTQQWGDVLPDGQGTYQTWVATRISQGEEQRFTCYMEHSGQHSTHPVPSGKGSHHHHHH
notes: also called WED-α1-α2; MICwed
B13 was tested. Which Kd [3] did it give?
Its Kd is 5.9 nM.

What about the IC50 (human NKG2D-Fc [2]) of the same binder?
The IC50 was 4.4 nM.

And the koff [4]?
The koff was 0.0017 s⁻¹.

And the kon [4]?
Its kon is 290000 M⁻¹ s⁻¹.

B14: α1-α2 variant 15 (His-tagged, with attached heterologous polypeptide) (ligand)
chain: B13 chain with K125N, H161R
Which Kd [3] does the source give for B14 here?
Its Kd is 1.5 nM.

And the “fold better binding than WT NKG2DL” value (human NKG2D-Fc [5])?
Its value is 11 fold.

And the IC50 (human NKG2D-Fc [2])?
Its IC50 is 1.7 nM.

What about the koff [4] of the same binder?
Its koff is 0.00011 s⁻¹.

What about the kon [4] of the same binder?
The kon was 70000 M⁻¹ s⁻¹.
